The supplement of paper PMC5998384

Columns and labels:
HeLa Kyoto [1] = assay: thermal stability score vs G1/S (z-score of summed log2 fold changes over temperatures); higher = more thermally stable than in G1/S
HeLa Kyoto [2] = assay: melting temperature (median over replicates), in situ; higher = more thermally stable
HeLa Kyoto [3] = assay: solubility in G1/S (NP-40 vs SDS abundance) (log2 ratio); higher = more soluble; settings: cell cycle stage: G1/S
HeLa Kyoto [4] = assay: solubility change mitosis vs G1/S (difference of NP-40 vs SDS log2 ratios) (log2 ratio difference); higher = more soluble in mitosis
[5] = cell cycle stage: early G1 (4.5 h after nocodazole release)
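Wherever melting temperature (median over replicates), in situ is given: HeLa Kyoto cells synchronized by double thymidine or nocodazole block, proteins quantified by TMT10plex mass spectrometry, three independent biological replicates.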
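Wherever solubility change mitosis vs G1/S (difference of NP-40 vs SDS log2 ratios) is given: synchronized HeLa Kyoto cells (double thymidine block for G1/S, nocodazole release for mitosis), protein amounts in NP-40 versus SDS lysates quantified by mass spectrometry, three biological replicates.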
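Wherever solubility in G1/S (NP-40 vs SDS abundance) is given: HeLa Kyoto cells arrested at G1/S by double thymidine block, proteins quantified by TMT10plex mass spectrometry in mild NP-40 versus SDS extracts, three biological replicates.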
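Wherever thermal stability score vs G1/S (z-score of summed log2 fold changes over temperatures) is given: synchronized HeLa Kyoto cells, proteins quantified by TMT10plex mass spectrometry, three biological replicates, mitosis taken 0.5 h after nocodazole release, G1/S directly after double thymidine block.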

Sequence of SLC38A10 (chain, as listed by the source): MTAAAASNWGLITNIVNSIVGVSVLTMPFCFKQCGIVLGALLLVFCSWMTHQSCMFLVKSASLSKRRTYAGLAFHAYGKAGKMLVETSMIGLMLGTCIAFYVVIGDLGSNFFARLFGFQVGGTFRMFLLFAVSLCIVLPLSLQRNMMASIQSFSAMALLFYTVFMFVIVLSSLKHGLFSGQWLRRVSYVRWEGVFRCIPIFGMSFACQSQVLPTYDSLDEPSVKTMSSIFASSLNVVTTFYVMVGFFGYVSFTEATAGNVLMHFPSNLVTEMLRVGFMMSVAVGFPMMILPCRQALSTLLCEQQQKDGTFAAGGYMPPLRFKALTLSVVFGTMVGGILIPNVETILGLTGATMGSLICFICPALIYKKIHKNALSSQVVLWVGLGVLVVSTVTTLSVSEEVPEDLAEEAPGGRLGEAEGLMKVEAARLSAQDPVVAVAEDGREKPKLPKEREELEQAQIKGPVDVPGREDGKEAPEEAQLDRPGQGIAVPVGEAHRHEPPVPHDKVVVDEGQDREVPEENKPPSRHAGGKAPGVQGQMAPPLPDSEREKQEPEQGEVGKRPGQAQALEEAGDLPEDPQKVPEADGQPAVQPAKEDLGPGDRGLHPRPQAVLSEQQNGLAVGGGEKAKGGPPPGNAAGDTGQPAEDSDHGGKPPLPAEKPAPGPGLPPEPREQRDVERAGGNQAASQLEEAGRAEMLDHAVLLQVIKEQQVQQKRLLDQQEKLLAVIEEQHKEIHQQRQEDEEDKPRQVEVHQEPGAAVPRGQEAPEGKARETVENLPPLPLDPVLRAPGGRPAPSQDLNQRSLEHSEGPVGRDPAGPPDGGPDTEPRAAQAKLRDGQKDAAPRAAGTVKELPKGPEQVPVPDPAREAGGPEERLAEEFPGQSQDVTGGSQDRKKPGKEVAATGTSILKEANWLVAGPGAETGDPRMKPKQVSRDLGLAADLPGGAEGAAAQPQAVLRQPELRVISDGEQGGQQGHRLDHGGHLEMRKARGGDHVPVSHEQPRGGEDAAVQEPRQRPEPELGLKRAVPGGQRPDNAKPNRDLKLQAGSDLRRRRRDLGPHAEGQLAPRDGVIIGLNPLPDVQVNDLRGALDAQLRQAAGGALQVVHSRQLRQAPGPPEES

Q: With CDC42BPB as the substance, how does the thermal stability score (HeLa Kyoto [1]; [5]) read?
A: 0.874

Q: What about the thermal stability score (HeLa Kyoto [1]; cell cycle stage: mitosis) of the same substance?
A: 0.582

Q: What about the melting temperature (HeLa Kyoto [2]; cell cycle stage: G1/S) of the same substance?
A: 51 °C

Q: And the melting temperature (HeLa Kyoto [2]; cell cycle stage: mitosis)?
A: 50.6 °C

Q: What about the “solubility in G1/S (log2)” value (HeLa Kyoto [3]) of the same substance?
A: -0.234

Q: And the “solubility change mitosis (log2)” value (HeLa Kyoto [4])?
A: -0.105

Q: Which thermal stability score (HeLa Kyoto [1]; [5]) does the source give for “MATSLGSNTYNRQNWEDADFPILCQTCLGENPYIRMTKEKYGKECKICARPFTVFRWCPGVRMRFKKTEVCQTCSKLKNVCQTCLLDLEYGLPIQVRDAGLSFKDDMPKSDVNKEYYTQNMEREISNSDGTRPVGMLGKATSTSDMLLKLARTTPYYKRNRPHICSFWVKGECKRGEECPYRHEKPTDPDDPLADQNIKDRYYGINDPVADKLLKRASTMPRLDPPEDKTITTLYVGGLGDTITETDLRNHFYQFGEIRTITVVQRQQCAFIQFATRQAAEVAAEKSFNKLIVNGRRLNVKWGRSQAARGKEKEKDGTTDSGIKLEPVPGLPGALPPPPAAEEEASANYFNLPPSGPPAVVNIALPPPPGIAPPPPPGFGPHMFHPMGPPPPFMRAPGPIHYPSQDPQRMGAHAGKHSSP [RBM22]” here?
A: -0.922

Q: And the thermal stability score (HeLa Kyoto [1]; cell cycle stage: mitosis)?
A: -0.478

Q: What about the melting temperature (HeLa Kyoto [2]; cell cycle stage: G1/S) of the same substance?
A: 48.6 °C

Q: And the melting temperature (HeLa Kyoto [2]; cell cycle stage: mitosis)?
A: 49.8 °C

Q: What about the “solubility in G1/S (log2)” value (HeLa Kyoto [3]) of the same substance?
A: -0.116

Q: And the “solubility change mitosis (log2)” value (HeLa Kyoto [4])?
A: 0.274

Q: Which results are given for “MGDPAPARSLDDIDLSALRDPAGIFELVEVVGNGTYGQVYKGRHVKTGQLAAIKVMDVTEDEEEEIKQEINMLKKYSHHRNIATYYGAFIKKSPPGNDDQLWLVMEFCGAGSVTDLVKNTKGNALKEDCIAYICREILRGLAHLHAHKVIHRDIKGQNVLLTENAEVKLVDFGVSAQLDRTVGRRNTFIGTPYWMAPEVIACDENPDATYDYRSDIWSLGITAIEMAEGAPPLCDMHPMRALFLIPRNPPPRLKSKKWSKKFIDFIDTCLIKTYLSRPPTEQLLKFPFIRDQPTERQVRIQLKDHIDRSRKKRGEKEETEYEYSGSEEEDDSHGEEGEPSSIMNVPGESTLRREFLRLQQENKSNSEALKQQQQLQQQQQRDPEAHIKHLLHQRQRRIEEQKEERRRVEEQQRREREQRKLQEKEQQRRLEDMQALRREEERRQAEREQEYKRKQLEEQRQSERLQRQLQQEHAYLKSLQQQQQQQQLQKQQQQQLLPGDRKPLYHYGRGMNPADKPAWAREVEERTRMNKQQNSPLAKSKPGSTGPEPPIPQASPGPPGPLSQTPPMQRPVEPQEGPHKSLVAHRVPLKPYAAPVPRSQSLQDQPTRNLAAFPASHDPDPAIPAPTATPSARGAVIRQNSDPTSEGPGPSPNPPAWVRPDNEAPPKVPQRTSSIATALNTSGAGGSRPAQAVRARPRSNSAWQIYLQRRAERGTPKPPGPPAQPPGPPNASSNPDLRRSDPGWERSDSVLPASHGHLPQAGSLERNRVGVSSKPDSSPVLSPGNKAKPDDHRSRPGRPADFVLLKERTLDEAPRPPKKAMDYSSSSEEVESSEDDEEEGEGGPAEGSRDTPGGRSDGDTDSVSTMVVHDVEEITGTQPPYGGGTMVVQRTPEEERNLLHADSNGYTNLPDVVQPSHSPTENSKGQSPPSKDGSGDYQSRGLVKAPGKSSFTMFVDLGIYQPGGSGDSIPITALVGGEGTRLDQLQYDVRKGSVVNVNPTNTRAHSETPEIRKYKKRFNSEILCAALWGVNLLVGTENGLMLLDRSGQGKVYGLIGRRRFQQMDVLEGLNLLITISGKRNKLRVYYLSWLRNKILHNDPEVEKKQGWTTVGDMEGCGHYRVVKYERIKFLVIALKSSVEVYAWAPKPYHKFMAFKSFADLPHRPLLVDLTVEEGQRLKVIYGSSAGFHAVDVDSGNSYDIYIPVHIQSQITPHAIIFLPNTDGMEMLLCYEDEGVYVNTYGRIIKDVVLQWGEMPTSVAYICSNQIMGWGEKAIEIRSVETGHLDGVFMHKRAQRLKFLCERNDKVFFASVRSGGSSQVYFMTLNRNCIMNW [MINK1]”?
A: thermal stability score (HeLa Kyoto [1]; [5]): 0.759; thermal stability score (HeLa Kyoto [1]; cell cycle stage: mitosis): 2.05; melting temperature (HeLa Kyoto [2]; cell cycle stage: G1/S): 49.8 °C; melting temperature (HeLa Kyoto [2]; cell cycle stage: mitosis): 50.7 °C; solubility in G1/S (log2) (HeLa Kyoto [3]): -0.0708; solubility change mitosis (log2) (HeLa Kyoto [4]): 0.157

Q: Which results are given for “MYAVYKQAHPPTGLEFSMYCNFFNNSERNLVVAGTSQLYVYRLNRDAEALTKNDRSTEGKAHREKLELAASFSFFGNVMSMASVQLAGAKRDALLLSFKDAKLSVVEYDPGTHDLKTLSLHYFEEPELRDGFVQNVHTPRVRVDPDGRCAAMLVYGTRLVVLPFRRESLAEEHEGLVGEGQRSSFLPSYIIDVRALDEKLLNIIDLQFLHGYYEPTLLILFEPNQTWPGRVAVRQDTCSIVAISLNITQKVHPVIWSLTSLPFDCTQALAVPKPIGGVVVFAVNSLLYLNQSVPPYGVALNSLTTGTTAFPLRTQEGVRITLDCAQATFISYDKMVISLKGGEIYVLTLITDGMRSVRAFHFDKAAASVLTTSMVTMEPGYLFLGSRLGNSLLLKYTEKLQEPPASAVREAADKEEPPSKKKRVDATAGWSAAGKSVPQDEVDEIEVYGSEAQSGTQLATYSFEVCDSILNIGPCANAAVGEPAFLSEEFQNSPEPDLEIVVCSGHGKNGALSVLQKSIRPQVVTTFELPGCYDMWTVIAPVRKEEEDNPKGEGTEQEPSTTPEADDDGRRHGFLILSREDSTMILQTGQEIMELDTSGFATQGPTVFAGNIGDNRYIVQVSPLGIRLLEGVNQLHFIPVDLGAPIVQCAVADPYVVIMSAEGHVTMFLLKSDSYGGRHHRLALHKPPLHHQSKVITLCLYRDLSGMFTTESRLGGARDELGGRSGPEAEGLGSETSPTVDDEEEMLYGDSGSLFSPSKEEARRSSQPPADRDPAPFRAEPTHWCLLVRENGTMEIYQLPDWRLVFLVKNFPVGQRVLVDSSFGQPTTQGEARREEATRQGELPLVKEVLLVALGSRQSRPYLLVHVDQELLIYEAFPHDSQLGQGNLKVRFKKVPHNINFREKKPKPSKKKAEGGGAEEGAGARGRVARFRYFEDIYGYSGVFICGPSPHWLLVTGRGALRLHPMAIDGPVDSFAPFHNVNCPRGFLYFNRQGELRISVLPAYLSYDAPWPVRKIPLRCTAHYVAYHVESKVYAVATSTNTPCARIPRMTGEEKEFETIERDERYIHPQQEAFSIQLISPVSWEAIPNARIELQEWEHVTCMKTVSLRSEETVSGLKGYVAAGTCLMQGEEVTCRGRILIMDVIEVVPEPGQPLTKNKFKVLYEKEQKGPVTALCHCNGHLVSAIGQKIFLWSLRASELTGMAFIDTQLYIHQMISVKNFILAADVMKSISLLRYQEESKTLSLVSRDAKPLEVYSVDFMVDNAQLGFLVSDRDRNLMVYMYLPEAKESFGGMRLLRRADFHVGAHVNTFWRTPCRGATEGLSKKSVVWENKHITWFATLDGGIGLLLPMQEKTYRRLLMLQNALTTMLPHHAGLNPRAFRMLHVDRRTLQNAVRNVLDGELLNRYLYLSTMERSELAKKIGTTPDIILDDLLETDRVTAHF [CPSF1]”?
A: thermal stability score (HeLa Kyoto [1]; [5]): -0.361; thermal stability score (HeLa Kyoto [1]; cell cycle stage: mitosis): 0.307; melting temperature (HeLa Kyoto [2]; cell cycle stage: G1/S): 50.3 °C; melting temperature (HeLa Kyoto [2]; cell cycle stage: mitosis): 50.6 °C; solubility in G1/S (log2) (HeLa Kyoto [3]): -0.464; solubility change mitosis (log2) (HeLa Kyoto [4]): 0.129

Q: Which thermal stability score (HeLa Kyoto [1]; [5]) does the source give for SLC38A10 here?
A: 2.59

Q: And the thermal stability score (HeLa Kyoto [1]; cell cycle stage: mitosis)?
A: 0.548

Q: And the melting temperature (HeLa Kyoto [2]; cell cycle stage: G1/S)?
A: 54.2 °C

Q: What about the melting temperature (HeLa Kyoto [2]; cell cycle stage: mitosis) of the same substance?
A: 54.7 °C

Q: What about the “solubility in G1/S (log2)” value (HeLa Kyoto [3]) of the same substance?
A: -0.351

Q: What about the “solubility change mitosis (log2)” value (HeLa Kyoto [4]) of the same substance?
A: 0.284
